Measurements from the nanobody polyreactivity screen of Harvey et al. (2022).

Assay: yeast display, Sf9 membrane polyspecificity reagent, FACS + sequencing; frameworks hold sequencing errors
Summary of the method: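 Genes from sorted yeast were amplified by colony PCR, read by MiSeq 2 × 250 sequencing and filtered on CDR length. These cells carried a synthetic nanobody library in Saccharomyces cerevisiae BJ5465 and were sorted by FACS into low and high (top ~1%) gates on anti-HA and streptavidin fluorescence. Polyreactivity is labelled according to the gate of origin.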
With “QVQLVESGGGLVQAGGSLRLSCAASGSIFTWYAMGWYRQAPGKERELVAAISEDGGSTYYADSVKGRFTISRDNAKNTVYLQMNSLKPEDTAVFYCATPVASVTGYDYWGQGTQVTVSS” the “polyreactivity (PSR sort gate)” value was “low polyreactivity”. For “QVQLVESGGGLVQAGGSLRLSCAASGSIFTWYAMGWYRQAPGKERELVAAITRGGSTYADSVKGRFTISRDNAKNTVYLQMNSLKPEDTAVYYCNAVYGVYDFNYWGHGTQVTVSS”, the “polyreactivity (PSR sort gate)” value was “low polyreactivity”. In the case of “QVQLVESGGGLVQAGGSLRLSCAASGSIFTYNAMGWYREAPGKERELVAAIRLSGGSTYYADSVKGRFTISRDNAKNTVYLQMNSLKPEDTAVYYCAAESAAASAVYSVEYDYWGQGTQVTVSS”, the “polyreactivity (PSR sort gate)” value is reported as “low polyreactivity”. With “QVQLVESGGGLVQAGGSLRLSCAASGSIFTYYAMGWYRQAPGKERELVAAISYSGGTTYYADSVKGRFTISRDNAKNTVYLQMNSLKPEDTAVYYCNVDADYESQWLSVGYDYWGQGTQVTVSS” the “polyreactivity (PSR sort gate)” value was “low polyreactivity”. With “QVQLVESGGGLVQAGGSLRLSCAASGSIFVDNAMGWYRQAPGKERELVAAINWSGGSTYYADSVKGRFTISRDNAKNTVYLQMNSLKQEDTAVYYCNAARPVQTWDEQSWYDYWGQGTQVTVSS” the “polyreactivity (PSR sort gate)” value was “low polyreactivity”. In the case of “QVQLVESGGGLVQAGGSLRLSCAASGSIFVDYAMGWYRQAPGKERELVAAISSGGSTNYADSVKGRFTISRDNAKNTVYLQMNSLKPEDTAVYYCAADGSYGYDYWGQGTQVTVSS”, the “polyreactivity (PSR sort gate)” value is reported as “low polyreactivity”. For “QVQLVESGGGLVQAGGSLRLSCAASGSIFVDYAMGWYRQAPGKERELVASISGGGSSTYYADSVMGRFTISRDNAKNTVYLQMNSLKPEDTALYYCARDGVRSSSEYDYWGQGTQVTVSS”, the “polyreactivity (PSR sort gate)” value was “low polyreactivity”. With “QVQLVESGGGLVQAGGSLRLSCAASGSIFVENAMGWYRQAPGEERELVAAISSSGDSTYYADSVKGRFTISRDNAKNTVYLQINSLKPEDTAVYYCNRRRPRYYWGQGTQVTVSS” the “polyreactivity (PSR sort gate)” value was “high polyreactivity”. In the case of “QVQLVESGGGLVQAGGSLRLSCAASGSIFVEYAMGVYREAPGKERELVATINLSAGSTYYADSVKGRFTISRDNAMNTGYLQMNRLKPEDTAVYYCAALYYWDQPQLEFSYLGQGTQVTVSS”, the “polyreactivity (PSR sort gate)” value is reported as “low polyreactivity”. For “QVQLVESGGGLVQAGGSLRLSCAASGSIFVEYDMGWYIQAPGKERELVADISGTGNTYYADSVKGRFTISRDNAQNTVYLQMNSLKPEDTSVYYCAAGTYFTNYWSPFVWYDYWGQGTQVTVSS”, the “polyreactivity (PSR sort gate)” value was “high polyreactivity”. For “QVQLVESGGGLVQAGGSLRLSCAASGSIFVFYAMGWYRQAPGKERELVAAIDVSDGSTYYADSVKGRFTISRDNAKNTVYLQMNSLKPEDTAVYYCATYVVTYYWWYTYDYWGQGTQVTVSS”, the “polyreactivity (PSR sort gate)” value was “low polyreactivity”. In the case of “QVQLVESGGGLVQAGGSLRLSCAASGSIFVGNAMGWSRQAPGKERELVAAISLSGGSTYFADSVKGRFTISRDNAKNTVYLQMNSLKPDDTAVYYCAAQTKPASRVTYYWYYYWGQGTQVTVSS”, the “polyreactivity (PSR sort gate)” value is reported as “low polyreactivity”. For “QVQLVESGGGLVQAGGSLRLSCAASGSIFVGNAMGWYRQAPGKERELVAAISSSGGSTYYADSVKGRFTISRDNAKNTVYLQMNSLKPEDTAVYYCAADTYSTSVYYYWGQGTQVTVSS”, the “polyreactivity (PSR sort gate)” value was “low polyreactivity”. For “QVQLVESGGGLVQAGGSLRLSCAASGSIFVGNAMGWYRQAPGKERELVAAITRSGGRTYYADSVKGRFTISRDNAKNTVYLQMNSLKPEDTAVYYCNAVYWTVYSREYDYWGQGTQVTVSS”, the “polyreactivity (PSR sort gate)” value was “high polyreactivity”. In the case of “QVQLVESGGGLVQAGGSLRLSCAASGSIFVGNAMGWYRQAPGKERELVAGISKSGSRTYYADSVKGRFTISRDNAKNTVYVQMNSLKPEDTSVYYCAAGKVAYYTLDYYWGQGTQVTVSS”, the “polyreactivity (PSR sort gate)” value is reported as “high polyreactivity”. With “QVQLVESGGGLVQAGGSLRLSCAASGSIFVGNAMGWYRQAPGKEWELVAAISAGGSTYYADSVKGRFTISRDNAKNTVYLKLNSLKTEDTAVYYCAAYYVRRYSSRPKDDYWGQGTQVTVSS” the “polyreactivity (PSR sort gate)” value was “low polyreactivity”. With “QVQLVESGGGLVQAGGSLRLSCAASGSIFVGYAMGWYRQAPGKERELVAAIRSGGSTKYADSVKGRFTISRDNAKNTVYLQMNSLKAEDTAVYYCNVEVHPYYWVDNFHRFPVLHNYWGQGTQVTVSS” the “polyreactivity (PSR sort gate)” value was “low polyreactivity”. With “QVQLVESGGGLVQAGGSLRLSCAASGSIFVGYAMGWYRQAPGKERELVAAISWSGDSTYYADSVKGRFTISRDNAKNTVYLQMNSLKPEDTAVYYCAVDYAEIGPRREVEYDYWGQGTQVTVSS” the “polyreactivity (PSR sort gate)” value was “low polyreactivity”. With “QVQLVESGGGLVQAGGSLRLSCAASGSIFVGYAMGWYRQAPGKERELVATISSSATSTYYADSVKGRFTISRDNATNTVYLQMNSLKPEDTAVYSCAVERDYGWPIYIRWHFDYWGQGTQVTVAS” the “polyreactivity (PSR sort gate)” value was “low polyreactivity”. For “QVQLVESGGGLVQAGGSLRLSCAASGSIFVGYARGWYRQAPGKERELVAAISFSGGSTYYADSVKGRFTLSRDNAKNTVYLQMNSLKPEDTAVYYCNAYSWYNGIGNYDYWGQGTQVTVSS”, the “polyreactivity (PSR sort gate)” value was “low polyreactivity”. In the case of “QVQLVESGGGLVQAGGSLRLSCAASGSIFVGYDMGWYRQAPGKARELVAAITRDGDTNYADSVKGRFTISRDNAKNTVYLQMNSLKPEDTAVYYCAADRWLYSWFFNYDQGDYWGQGTQVTVSS”, the “polyreactivity (PSR sort gate)” value is reported as “low polyreactivity”. In the case of “QVQLVESGGGLVQAGGSLRLSCAASGSIFVGYDMGWYRQAPGKERELVASINGGDSTNYADSVKGRFTISRDNAKNTVYLQMNSLKPEDTAVYYCAKDVTYTDEYDYWGQGTQVTVSS”, the “polyreactivity (PSR sort gate)” value is reported as “low polyreactivity”. For “QVQLVESGGGLVQAGGSLRLSCAASGSIFVGYDMGWYRQAPGKEREWVAAITSSGGGSTYYADSVKGRFTISRDNAKNTVYLQMNSLKPEDTAVYYCAARTSLWWFLKYDYWGQGTQVTVSS”, the “polyreactivity (PSR sort gate)” value was “low polyreactivity”. In the case of “QVQLVESGGGLVQAGGSLRLSCAASGSIFVGYTMGWYRQAPGKETELVADITYNGGTTYYADSVKGRFTISRDNAKNTVYLQMNSLKPEETAVYYCAADYYYACFPVYYWGQGTQVTVSS”, the “polyreactivity (PSR sort gate)” value is reported as “high polyreactivity”. In the case of “QVQLVESGGGLVQAGGSLRLSCAASGSIFVGYVMGWYRQAPGKERELVAAISRSGGRTYYADSVKGRFTISRDNAKNTVYLQMNSLKPEDTAVYYCNADVIDLDYDYWGQGTQVTVSS”, the “polyreactivity (PSR sort gate)” value is reported as “low polyreactivity”. For “QVQLVESGGGLVQAGGSLRLSCAASGSIFVHNAMGWYRHAPGKERELVAAITWSGGSTYYADSVKGRFTISRDNAKNTVYLQMNSLKPEDTAVYYCAAEDVAAQWAYESPTSYWYYYWGQGTQVTVSS”, the “polyreactivity (PSR sort gate)” value was “low polyreactivity”. With “QVQLVESGGGLVQAGGSLRLSCAASGSIFVHYAMGWYRQAPGKERELVARISWRGNTYYADSVKGRFTISRDNAKNTVYLQMNSLKPEDTAVYYCATGQSVIYRYEYWGQGTQVTVSS” the “polyreactivity (PSR sort gate)” value was “low polyreactivity”. In the case of “QVQLVESGGGLVQAGGSLRLSCAASGSIFVINAMGWYRQAPGKERELVAAISYSGTGTYYADSVKGRFTISRDNAKNTVYLQMNSLKAEDTAVYYCAADFYYRYRIYDYWGQGTQVTVSS”, the “polyreactivity (PSR sort gate)” value is reported as “low polyreactivity”. For “QVQLVESGGGLVQAGGSLRLSCAASGSIFVIYAMGWYRQAPGKERELVAAITYSGGSTYYADSVKGRFTISRDNAKNTVYLQMNSLKPEDTAVYYCAAVRDSRYYDYDYWGQGTQVTVSS”, the “polyreactivity (PSR sort gate)” value was “low polyreactivity”. With “QVQLVESGGGLVQAGGSLRLSCAASGSIFVIYSMGWYRQAPGKERELVARITKSGGSTYYADSVKGRFTISRDNAKITVYLQMNSLKPEDTAVYYCNVGYGGSSDGGYDYWGQGTQVTVSS” the “polyreactivity (PSR sort gate)” value was “high polyreactivity”. With “QVQLVESGGGLVQAGGSLRLSCAASGSIFVKNVMGWYRQAPGKERELVAAISRGSSTYYADSVKGRFTISRDNAKNTVYLQMNSLKPEDTAVYYCAARGPYRLRNDEAFDYWGQGTQVTVSS” the “polyreactivity (PSR sort gate)” value was “low polyreactivity”. For “QVQLVESGGGLVQAGGSLRLSCAASGSIFVKYAMGWYRQAPGKERELVAAISRSGGSTYYADSVKGRFTISRDNAKNTVYLQMNSLKPEDTAVYYCAASNYKGMNYWGQGTQVTVSS”, the “polyreactivity (PSR sort gate)” value was “high polyreactivity”. In the case of “QVQLVESGGGLVQAGGSLRLSCAASGSIFVKYAMGWYRQAPGKERELVASITGRGGSTYYADSVKGRFTISRDNAKNTVYLQMNSLKPEDTAVYYCAARVASRHGWHNYWGQGSQVTVSS”, the “polyreactivity (PSR sort gate)” value is reported as “high polyreactivity”. With “QVQLVESGGGLVQAGGSLRLSCAASGSIFVLNAMGWYRQAPGKERELVAAITNVGSTYYADSVKGRFTISRDNAKNTVYLQMNSLKPEDTAVYYCNAVVATSKYTDYYWGQGTQVTVSS” the “polyreactivity (PSR sort gate)” value was “low polyreactivity”. In the case of “QVQLVESGGGLVQAGGSLRLSCAASGSIFVLYAMGWYRQAPGKEREFVAAISRSGGSTYYADSVKGRFTISRDNAKNTVYLQMNSLKPEDTAVYYCAASSRLNRWNYYAFDYWGQGTQVTVSS”, the “polyreactivity (PSR sort gate)” value is reported as “high polyreactivity”. With “QVQLVESGGGLVQAGGSLRLSCAASGSIFVPYAMGWYRQAPGKERELVAAISNGDSTYYADSVKGRFTISRDNGKNTVYLQMNSLNPEDTAVYYCAAPYAGWRDGGDYWGQGTQVTVSS” the “polyreactivity (PSR sort gate)” value was “low polyreactivity”. With “QVQLVESGGGLVQAGGSLRLSCAASGSIFVPYAMGWYRQAPGKERELVAAISRGGDTNYADSVKGRFTISRDNAKNTVYLQMNSLKPEDTAVYYCNRARHQSSRWHGGYYYWGQGTQVTVSS” the “polyreactivity (PSR sort gate)” value was “low polyreactivity”. With “QVQLVESGGGLVQAGGSLRLSCAASGSIFVPYAMGWYRQAPGKERELVAAISSGGGRTYYADSVKGRFTIARDNAKNTVYLQMNSLKPEDTAVYYCAARYYIGYGHRTYGYDYWGQGTQVTVSS” the “polyreactivity (PSR sort gate)” value was “high polyreactivity”. With “QVQLVESGGGLVQAGGSLRLSCAASGSIFVPYAMGWYRQAPGKERELVAAISSRGGSTYYADSVKGRFTISRDTAKNTVYLQMNSLKPEDTAVYYCNTEISRNYYWALYGYWGQGTQVTVSS” the “polyreactivity (PSR sort gate)” value was “low polyreactivity”. With “QVQLVESGGGLVQAGGSLRLSCAASGSIFVPYAMGWYRQAPGKERELVAAITRSSGSTYYADSVKGRFTISRDNAKNTVYVQMNSLKPQDSAVYYCAADFLLEFVYWGQGTQLTVSS” the “polyreactivity (PSR sort gate)” value was “low polyreactivity”.
